# Experimental data taken from article PMC3061877, “Comparison of the Frequency of Functional SH3 Domains with Different Limited Sets of Amino Acids Using mRNA Display” (PLoS ONE, 2011).
# B1: VSL12 peptide (peptide)
# peptide: VSLARRPLPPLP
# notes: The methods of the fluorescence perturbation assay say only 'peptide VSL12'; also called free VSL12 peptide; peptide VSL12; source: synthetic peptide, bought: Invitrogen
# Molecular target: wild-type src SH3 domain (T7·tag/His6 construct) (UniProt P00523 81-140)
# Test: other fluorescence titration; fluorescence perturbation assay; aliquots of peptide added to SH3 domain (0.5 µM) in PBS pH 7.4, 10 min at 20°C; excitation 278 nm, emission 350 nm
# Settings: both partners purified
binder,measurement,value
B1,Kd,2300 ± 470 nM
